What was measured:
[1] = biological target: HIV-1 AD8 gp41 W596L/K601H (HIV-1 AD8)
[2] = biological target: HIV-1 AD8 gp41 W596L/K601H/D674E (HIV-1 AD8)
[3] = biological target: HIV-1 AD8 gp120 surface glycoprotein; assay: immunoprecipitation of pulse-chase biosynthetically labelled Env from cell lysates (c) and supernatants (s), SDS-PAGE and phosphorimaging; settings: transfected 293T cells; cellular Env was analysed 5 h post synthesis; parent: 1
[4] = biological target: HIV-1 AD8 gp120 surface glycoprotein; assay: Western blotting of pelleted virions (virion-associated gp120 normalised to p24); settings: virions from 293T cells transfected with pAD8 proviral clones; virions were analysed at 48 h posttransfection; parent: 2.16

Substance	neutralization of HIV-1 AD8 virus in TZM-bl cells (luciferase), C34 IC50 against that for WT virus (log10 decrease against WT) [1]	neutralization of HIV-1 AD8 virus in TZM-bl cells (luciferase), C34 IC50 against that for WT virus (log10 decrease against WT) [2]	ratio to parent [3]	other: gp120 pixels/p24 pixels [4]
C34 fusion inhibitor peptide	0.5	0.5		
HIV-1 AD8 gp41 transmembrane glycoprotein, wild type W596L; K601H			3.37	0.93
HIV-1 AD8 gp41 transmembrane glycoprotein, wild type W596L; K601H; D674E			3.59	1.07
HIV-1 AD8 gp41 transmembrane glycoprotein, wild type WL/KH/DG			5.36	0.8
HIV-1 AD8 gp41 transmembrane glycoprotein, wild type WL/KH/DN			3.96	0.67
HIV-1 AD8 gp41 transmembrane glycoprotein, wild type ΔTW/WL/KH/DN			4.13	0.6
